The results in this text go back to a protein production outcome set (Wang et al. 2014).

The nature of this series: label from the status in PepcDB records.
As for “MALIVQKFGGTSVGTVERIEQVAEKVKKFREAGDDVVVVVSAMSGETNRLIGLANQIMEQPVPRELDVMVSTGEQVTIALLSMALIKRGVPAVSYTGNQVRILTDSAHTKARILHIDDTHIRADLKAGRVVVVAGFQGVDGNGNITTLGRGGSDTTGVALAAALKADECQIYTDVDGVYTTDPRVVPQARRLDKITFEEMLEMASLGSKVLQIRAVEFAGKYNVPLRVLHSFQEGPGTLITIDDEEESMEQPIISGIAFNRDEAKLTIRGVPDTPGVAFKILGPISAANVEVDMIVQNVAHDNTTDFTFTVHRNDYLNALEILKQTAANIGAREAIGDTNIAKVSIVGVGMRSHAGVASRMFEALAKESINIQMISTSEIKVSVVIEEKYLELAVRALHTAFELDAPARQG”, the protein production result is listed as “failed”. The result for “MKHYTVAINGLPQEFEGFTILHLTDLHAKKYGDQQDKLIRLINRQNFDMVAMTGDFIDKDNPDLEPTLELIQGLAAKPIFFVPGNHEWRYDFSIKSSLEEHGVKILDNKNAELARGDARLWIAGVDDPYLHRDKLEEALHGIADAQPKLLLAHAPNIFKPAAESGVELVLVGHTHGGQVRLPLIGAIVAPGQGLFPQYDYGHFTAGSTNMIVNGGLGESTLPLRFCSRPEIVLVKLVSAPLEHHHHHH” reads “failed”; that for “MNTYKKIFYFSTILFFYSGFSYAQNINLLLRKGNTCYRKGQYKNAAPYYDQVLKTDPENIQALYKSGVCNLFRYSKEQALINFEKVLQKDSSYDKYLYYWLGRANQLNFNFDQADFFYTAFQQKTSKNKIQYKEADRYKYQLKCARNFVANPANYKIQNLGAAVNSSFSDHSPVVSYTDTLLFFTSRRVTNTEAKEEHDGEPFEDIFYSYRNSTGEWSKPELFHLNTSGHDATIQLFDNDTKIFIYSYLHDGDILLAHKNAGTWSTPVPVKEINSADFESDAFMTADGKTLYYATNHFKKNGDLDICFITKKDDNTWSKPQTLSSLINTDEDEDAPYISADGKTMYFSSRGHTSMGGYDIFKSELDSVTGQWQKPVNLGYPVNTPDEDLYFCLSAKTKRAFMSSYRTGGFGEKDIYEIIPVKNIQLLGSVMKGDTSTPFPNVTMQYIPMAGAMKGAQKTQVNTLADGTYTTELLSDNAYLVYISQGKDTLLKDTLVLPLNEFDHYVYKQLYILNIHDTAAVKDSVIHKVTDTIKTIAAAEIAKTVYFESNRADLNAEAKTELNQLGIYLDTHKEANVYISGHADALGSAAINNALSQKRAQAAAVYLKAKGISAARIKVESFGSEKPVETNATVEGRAKNRRVQIVVK”, “failed”; that for “MDGRDLVRSVKAVGSGGAAGGLRTVRAAWRRRRADASGLPRRGAERARVPGPVQGVVPGPGGGVIRFARSELRITVAVNGAVFWGWDGAGPEPSYALAGRCPEPDPRAVLEPDKDGGWQVVAERGTVMVSRHGAVEVRTPGGVTLRRDLPPRWWEPADGGAAHWMQRSEVAADARFFGLGGRAAGPRLRGGTYRLWNTDPGHAVGPGDDPLYLTMPVQLVVADAATHLVFHDTSWDGTVTLREGEEGAGSGHDRAGTSELRMDGGPLRCWVMMGTPARVLHTWASLTGAPALPPAWALGHHHARRGSGSEQEVRGVVSGYQERGLPLDAVHLDNDHYDAHQVFTVDRDRFPKLPVLAEELRRDGIRLVSVVDPAVRAEPGNAVYDAGSAQDAFVRDAAGRVVEGVVWPGESVYPDFTHARVRKWWGGLYEERLAQGFAGFWHDLNEPVSFTAFGENTLPRSARHLLEGRGGDHREAHNVYALGMARAGYEGLRELSPQERPFIFSRSGWSGMQRYGGAWSGDVTTGWPGLRASLSLVIGLGLCGVPYSGPDVGGFDGSPSPELYLRWFQLGSYLPLFRTRAGLRAGRRELWEFGEDVLEHARVALVERRRLLPYFMTLAHLARRTGAPYVRPVWWGAPEDRALRDCEDAFLLGDSLLVAPVLDPGADRRAVQLPRGRWYDTVTEKAYDGPGQVLIGAPLSRIPVLARAGAVLPVRGDGGRLELEVWRPARGRTGGGLVVPDSGDGWDEPEIEQYVTRLRGQRVVVERDGDEGPGEPSYPVRVRGLPQA”, “failed”. On to “MLVSPDTPRFLAARLLLGAWLACGAGAQAQTLLDTSAAIGVQNTLNQIQPGVTQVPGSLSVQFDACKMAPESCKDGQPIGAAPAPATSGQSAQNAQSAQPAPSQVAPAAPTTPTQTTPTPAGEAPATRPVPTVVPLTAEQQQLLQAAQAQFAAGRYPQARNEFEALIVRNYNNPEPHFGLGLALYQLGDLRGATFEFGQFMQFAPQRYEGPYNLGVIATREGRYPDALRLYGEALTLAQSAPPAARQVLLRALATEQGRVKDYVALAATYADLRAADPENVEYIFRHAQALYQAGQVADALPVTYAVLERKPSSLQAALLLADLYVAQGLPDRAVRELSAAAARVLTGTDRATLLLRQSDLLLAQNNLRGALNAASEARQEDRRLPAAIIREAELLAQFGQRPAAVRAYRDALALTPKSAPIQAALAALYLEGNQYPEAAQAAQQALKLTPDASTRARALYVQGVVAYRQGQYTQARTALNSSVLAVPDADSLLWLGLSYYALKDYASAVPVLSESVRLRPTPAARQNLAAALLATARYAEAEALLRGLVTDEVKNAEGWYLLGLSQRAQQRPDDARQSFKTAAGLGSARAKDALK”, for which the protein production result is given as “failed”. The result for “MTQHYLRSAAYRDFSIHSIYGMSDDDIHAMFARLRWSSDSHQACPACGAWAQHYRRPARQQWRCKECGRDFSVTSATAFSSRKKSLRSILLATFYYVTGVKGLAGLGLSRMGDYSNKAAHVALGKLREAIFRTQDFTPLTGVVEIDGGYFGGKPRKPNRRGLRNDQAIVDRIAGRPAKRPWHASGMTRTNWEKRKNKRVVMIFRQQGRPGEGAVRSIAAVARSENDKDAAKLIARYVSSEAIIMTDESPAYATVSATHTHYAVRHSHEYVSAEGVNENQAESFFSRLRRWEYGVSHGVRPAYLADYANEMAWREDVRRFSIRTQVEMLLIKALTVGHSRWWRGYYQGKRRGTEILMNQGIPPSSASGASAQ” reads “failed”. Turning to “MGSLERSKKKAQVWKKAVIHFSLCFVMGFFTGFAPAGKASFFSNFETTSYTSTKSPIPPQPFENATYTQHSLLNRTLINSQSQAPAPAESREAEGETRSLSEKEDENQVKVTPRGLVIVVTPIITKDRYKNVLLRRMANTLRLVPPPLLWIVVEKHSDGEEKSSSTMLRKTGIMYRRIVFKEDFTSLESELDHQRNLALRHIEHHKLSGIVHFAGLNNIYDLDFFVKIRDIEVFGTWPMALLSANRKRVVVEGPVCESSQVLGWHLRKINNETETKPPIHISSFAFNSSILWDPERWGRPSSVEGTKQDSIKYVKQVVLEDDTKLKGLPAQDCSKIMLWRLKFPTRTRLST”, the protein production entry is “failed”. The entry for “MKGKLQHIHPLGMSIILGTLFARFATSMSIPFLAIYLTTVKGVSAGMTGAIIGTSALVGVFASFIGGNLSDRFGRKTIMLWSMIVWIFVFIGFSLADHVLSFFLLNALNGLCRSFFEPTSRALLSDLTKPEYRLLVYNLRYGAINVGVAIGPIVGLQIGSAKSTIPFLVAAGVYILYTAILAFQFKKYPMEKKKVSTEKPVTMLNAMRILRKDIVFLVALVGIILSNCGFSHLTTTVSQYFANAHIFEDGVKLFSYMLALNAIVVVIIQYPVIQMCKKYTPLTSIMVGTLFVSGGLFGFGIVESMLGAAVCTIIFTIGEVLMFSMTDVFIDDIAVAHLKGTYFGAMGFSGIGAVIGPWFGGVLLDYYGYQNGFAVFSALAIFSTVAFPVLLVTKGLSKKRYDRNSNIEMHAK” is “failed”; for “MQSDVVLGAAHWVYLLSVVAIILTMVLRANAVVPSVLGTFLVVLAFTGSPIQALVGIFTASFVAAKELFNIFLVITFMTALLNALKVLQADVRMVQPLRRVMTNGHASFLILAGCTYGLSLFFWPTPAVPLVCAILLPAAVAAGLPPLAGAMAIAIAGQGMALSSEYVIGVAPGISAKAAGAAVSAAVVADRALVLSVITGAIALVMTYLFMRKHIVPGDTALLAAWQARAQDGELERIEGSGSFDKAELARGASQPVKGGAEARLAGWSRAFALITPIAFLGVIALMALPRLVPGLPALRGGDAAALVGGVAFMLMMLATLAAEGPRRMLDVCPEHVTDGFVFAFRAMGSVLPIAGFFFIGAAETAAPILGLESGHAPGLLFDLISAAQHLIPENHYLVAFGVLLVGMVTGIDGSGFAGLPLTGTLSGALGPVVGIDPATLAAVGQMGAVWTGGGTLIAWSSLIAVAGFARVHVLDMVRALMLPVLLALSVSTIAAILIWS” it is “failed”. The result for “MKTSFSIRIAFFFILSFLAVSCHRDTDALNMTFSKVEKCMDLCPDSALNLLKGIHDPEKLWGESQATYALLMTQAMDKNYMKFSSDSLIALALNYYTITQTSPIMYAKALFYHGRVMLELDKEEEALKSFLAAKDVYERTKDHKMLALIAEEVGMINRKQDLYDDALTNFREALTTYKQLKDSLSVISASLNIARVYLFKSEWDSCSLYYNNALEIAVQKNYLSEITILHELGILYRSMQNLSEAERYFLAAYEKETDEEKKYMECLSLGYLYMQMGQTENARKYLIMSANSSKAYTQISAYDCLYFLEKDIDNFEEAIVYHELADSITNAMEELNSRELIASLQKKYENEKLRNDNLQMKVRYTNFILWGTIAFLFVVACMCYYYYKNRNNKKKIAEIELQIQENEEEIERYQQEIEDIQISKDQVLKENLMLEENRTKVGELNGKIVLLTMQNKTLSEHLKELGGELNVGISSGSFIHAFRLLLAIKEGTLRGKLSNEERQKLFSLFDLIYWNYVSRLLERAPTLTKHDLEICCFLKFGLSHEELSCIFHTTSDSVTRAKGRLKGRLGISPQDDLDLFLKEF” reads “failed”. The entry for “MKVFDVHKFDMKKEQDFLQVQFNLKNRINLSPTIHPDSINTGAGVDLAYWEQDGEPYGVCCIIVIDADTKEVIEKVHSMGRISVPYVSGFLAFRELPLIIEAAKKLETEPDVFLFDGNGYLHYNHMGVATHAAFFLGKPTIGIAKTYLKIKGCDFVTPEIEVGAYTDIIIDGEVYGRALRTRRDVKPIFLSCGNYIDLDSSYQITMSLINQESRLPIPVRLADLETHVLRTFYQKNHVLEHHHHHH” is “not failed”; for “MALREMIIDESDDIESYSDQSLCLDKAKELLALIKLPTGLLPLKDMTEVGYNKTKGFVWMRMRSKIEHTFREIGRRVLYDTEITAFVEDRRMRRLTGVKSKELMIWVPVNDIFIKRKILRRSPLLIPPACHEHLKFQHFNVRVDKLKEKRSNQTSLM” it is “failed”; for “MKFDRHRRLRSSATMRDMVRENHVRKEDLIYPIFVVEKDDVKKEIKSLPGVYQISLNLLESELKEAYDLGIRAIMFFGVPNSKDDIGTGAYIHDGVIQQATRIAKKMYDDLLIVADTCLCEYTDHGHCGVIDDHTHDVDNDKSLPLLVKTAISQVEAGADIIAPSNMMDGFVAEIRRGLDEAGYYNIPIMSYGVKYASSFFGPFRDAADSAPSFGDRKTYQMDPANRLEALRELESDLKEGCDMMIVKPALSYLDIVRDVKNHTNVPVVAYNVSGEYSMTKAAAQNGWIDEERVVMEQMVSMKRAGADMIITYFAKDICRYLDK” it is “failed”. As for “MLTQYRQAQEDILRGRVKVRVVGQDKGGGVVMGEGVEIAPGARIEGPVLIGGACHIATGAVVGPFTVLGPYTRVEEGATVRRSVLWDNVYTGEGANVRGLEHHHHHH”, the protein production result is listed as “not failed”.

In the case of “MIVMSKNVDEAISRKEEKCIMSFIPNMITIANFVCGLLAIYAVFVHDIYLGAVFIITGMLFDFFDGMVARKLDSVSEIGGELDSFADLVTFGVAPSILAYSASLKDLQSIGMICALTYSICGMLRLARFNTQQSKLPTFIGMPIPFAAMCLLILCFLKNPVSVAFGTCVLAYLMVSKIKFPHFKKDIAESLKPGRLD”, the protein production entry is “failed”. The entry for “MGHHHHHHSHMTKLPPIEQLLPHDKPMILVDRAMDIQQDTIHCQVDIAEHNPFFDSASQTVPAYVGIEFMAQSVAAWSGYHALMKEQAPPIGFLLGSRRYTSECDAFSRGQMLDVYAEKVMEDNGMAVFSARIELQGTVVATCQLNVYVPSEEKLQEMKIRSQQ” is “not failed”.
